System: full length human N-WASP (Myc-N-WASP-TAP)

N_GST_tev_Rac1 GTP (bacterial GST tagged Rac1 protein)
activation of FL N-WASP (barbed ends, actin polymerization assay): Rac1 can activate FL N-WASP | activation of FL N-WASP against Cdc42: Rac1 was a more potent N-WASP activator than Cdc42 in the absence of PIP2 vesicles | dose dependence of barbed end concentration: there is a bell shaped dose dependence for Nck1, Nck2 and Rac1

From US20060024786
